experiment: protease stability score; higher = more stable; yeast display proteolysis, trypsin and chymotrypsin;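 note: relative to predicted unfolded state with 0 unfolded-like and 1 meaning tenfold more protease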

| Sequence | protease stability score |
| --- | --- |
| SEEDRFLYEFARTILHLFETGNEEIFHKLADPHVRLHVNGVDNVGWERSYKFFHEEVRELRFHTWRIRDHRTFENRAHLDIEVDTEFNGVRLHLKSTLDVVVVNGRLKFFHIKQE | 0.424 |
| DEDHKIIEKLFRHWLELLLTGDEEEIEKQMDPHARIIINGRHTHGRDDIRRLLEEIRIRHLDIERLEIRIYGNKAVALSETRVEVRIGDKEFHVDYRIILIIEKVDGRWVKRSLELIVV | 1.71 |
| TEEVHRYKNMLELFDHAVRTGNEDLLKILFDPNTRIEVGEYHNHGWEAIEFFLKRVDHEHIEDSKLTSHHVQGNYLESHGHMHATLHFNGKELRIHTHVRWHLDKFNGRWVIHSIIIN | 1.33 |
| SEEEKELREIMKVFKDAFLTGNEDLLRQLMDPHVRFHIGDKKNHGWEALHEYLLRIDHLDDLHSHLTEVHIQGDKVKIDGHLHMVERYGDFRFEREIRVHIVIEKINGRWIIEEVHFI | 1.35 |
| SEDDNLNEWMMRVWLTTLRTGDEKNTERLLDPNARLHVGDKDFHGRELLTKHFYDEVETLGFKHSELKRLLYQGEKMIIHVEVNINGVDIHIDVHIRKIDGRWYIHQVHVR | 2.14 |
| SDLERDAREAFEHYVNLMRTGNEHIVEHLIDPDVKIEIGDKQVVGREEVLKLFHHLVKHLRWHDTKLHHVHYQGDKMLLDMRLDGTIDGRRLDTRVIWFILKIDGVWFIKYQHYH | 1.81 |
| TEHRHLIEQHLRDLQHDMRTGDEDNLHKLADPHVRVDIDGRQLHGREAWSKTMFELRTDIRVDRFDVQGNKIHIEGHLIEHFDGRTINMRVHIIWFKVDGRWLIHEVRIE | 1.22 |
| SEDEEISKKIIERILETMRTGDEDIMEHLVDPDAKFHDEDHHDHGREAFRWWSEFVKRIAGHDKVEIRQQHVKFQGNKVILHTIVIQGNKIYELIIVMEKFDGRWSISTVHIR | 1.43 |
| DHEDEHSEEMEQLIFTWLQTGDWEAFMKFLDPRVILHIGDKTVIGREKFIEFIEQFKNIRMKIHDVQVQGNKIHIDVRTDIDGREYREHIHIHIVNGRIRHIEVRHH | 1.92 |
| DEEREELHRHIKILNKAWTTGDERLLYELMDPHAKINIDGVDFIGREEATEEYHHRWRHLGVDHFEVRFTEIHDIDGRLHMQTKLNLIVNGQREERHTRVHVRKINGRWLVHNLEIR | 0.125 |
| DEDHRDVERLFQFVEELLHTGDERVNEELADPNVRIDVNGVERHGREDMVTWLRTIEERYKNATFHTHHIRIQGNKLKVNGRIRQGDWSSDVDILYVKINGRWFIRELKVK | 1.49 |
| EEDKETAEHFSRVLHENWETGDEHRELLYMDPNVRTDFNGVDAVGREEFHKLVHHLLTHIRMRSLHIRKVHIQGEYLHIEGELNTEVNGREVVLEMRITSLKINGRWITHSMHFR | 0.304 |
| DEFEEAIKLVDDIRSFALLTGDEKELKHMADPNVKLDFNGVELVGMERVWKFFEEIRLVERHVHIKDRDVQGDKVRVDGRQDIEVQQGDKKSRMDIRLDIIIKKVDGRWIVHSLVLI | 0.77 |
| DEEERDISRWLDHLIESLETGDEDSLQHLLDPHVRVVVNGKDHHGWKALTKMLRQLRVNRIRIRDFEIIGDKIEVDIRMHVRVGDKHYVFNVDLVARKIDGRWIMHNITIH | 2.19 |
| DEEEEHMKHHLDLWIKLVQTGNEEHIARMIDPNARFDINGKEEHGRESFRKHLHEILKFFGVDRFHHEIKELRVIDGRVHSVTLWEINGQRLDTRIHAHKVNGVWLVHSLEIK | 1.14 |
| SEIEHVVKRAIKIFIEVLETGDWELMWRLLDPHVRIEVGNKEKHGRHTIEEMIRRVDHIHINERQIHDIEIQGDKVHLHIHLNVEERVGDKRLNFEFELHIIAEKVNGRWIVRSVTIK | 1.62 |
| SEQSKHVKDMFDTWVHSERTGDWRVAKELVDPNARIDINGREFHGMEEAERLAHEIFTRIDHKELRIDHVHFINGVFKVEGTVIFRQGDKQFTIETRIHLFVINGRLKELKVEFI | 1.15 |
| SELEHQVRKFVEIYVEAMRTGDEDVLRELADPHVRVVIGDKELHGWEEVVHKLRELRLEEIRVDRVRVIGDYVYVDGHSVWTYGDKRIEQRDIFTIRKVNGRWVLHDVILR | 1.99 |
| DDIEEILKEAFERLIHDLRTGNEDNLRSLIDPNVRLNWNGQELHGREHVLELLTRIKNLRIEDWTTKDQRYQGDKIEMDGILHTRIGDKEIHLETHIHVRKVDGRWKIEQLDFR | 2 |
| HEDYEDLDKLREHLLTAMKTGDWEVMYRNFDPHVRLLYNGKDTHGREDLRRLVEEMRTRDVRIIITREEIQGNKVFMHGTLEVDGNWNGVDRHIHREVTHIMVKIDGRWIVTVERIR | 0.899 |
| SEDEDFAKKWTDEILTAFLTGDWKLLSDLVDPNVRVIYGEFHFHGREQTIKWLEHHYREIRIHDYKIKHIEVQGEKVIVDGEVDRHYNGRRHRIHTEIIIIIFNGVIREIEFREN | 2.05 |
| REDEDAVREWALKFLESSLTGDEHFLKNLMDPHARLVIGDKHFHGREEVVRTWREFLTKFKNVRHDLHDINIQGDKVDVVENLVFDGVRTRTRITMRKVDGRWVITDIVIE | 2.08 |
| DHEEEHARSIIELLLYAFTTGNEKLLRRLIDPDAKVDIDGKSLHGMEDVSRHLREMIDHWRFRHIDVRRLEVQGEWIHITGRWDGDQGDKKVERDVEVRVLVVDGRVKHRSIHFR | 1.34 |
| DETERWAHLMLKLMQRYQETGDEDSLLELMDPEAKIDINGKEIHGREEWREHRYHHLRELGHTNIDVRVHLRRMHNVGDKANVRGELRININGKKLSVDVIIIILKIDGRWVIESLRLE | 0.736 |
| TEDRESILKLITMEQRNLRTGDEERWHELADPDYRLEFENREIHGREHAIRFMIETTLKLGVDHVELIINDVKWQGDKLHIDGHLRLEIGDKIIEERVIIINLKVNGRWLLRRKHVG | 1.03 |

| Sequence | protease stability score |
| --- | --- |
| NELEEEAHRKMEKVLRHLQTGDEDSLHRLLDPNVRLIVGDKEMHGRERAVEVLSRILKEMGVKHIKLRRFSVFNGVAHTDSELNQGEYVHNLHLVIEKVDGQWVMRSLHIE | 1.41 |
| DEMHEYTERLLHLLTFAQITGDERIHERLADPNVKIHINGREFHGREEVWHSLEEIRVRHTELRESDIQGDKINVNGDVDLHFNGVDIVTKVRIVVDKVNGRWRISFLRID | 0.546 |
| SKEDRDAKWAFEHLMHLLHTGDEEKINENLDPNARNEFDGRELHGREIITEILRNLGIKHLHIHSVEFISQGDKLFSNVDGNNIFDGREVHTHLHFIIEKFNGKWNIKSIHIKIT | 1.19 |
| SEEQEVARDFFKILTHFHQTGNEEIVHELFDPNVRLHVGDKEVHGREEFIKVERELRTDDMHLRHVELQGEFIRIDVRAKGRVNGRDLEFHVHIVVRKVNGRWILTSLHIK | 0.446 |
| SEDEHIADMVIKELQHILNTGDEDRLRDLMDPNTRFDINGRHIHGREDVAHWLAREVLEMRVEFHLEHWDIVDGRIHIHSNVLIIVGNKIIRIKTEILIIKIDGRWYVEELKFR | 1.36 |
| DEDHKIVEHMVKLIIDSMHTGDEHSIRELFDPNTRMDVNGVDFHGWEHYHKRIEDLRKRADHVTIYIRDMKVINGQAHIHTEMRIDIGDKHLRHRVIIIVLKVDGRWVIEQVIFL | 2.29 |
| DEMEEESHTVLKLIVESFRTGDEEEVRHLADPNVRLDVDGQRNHGWKMLLKFFRQIRWHDVELHDIELQGDKMHIIGHVDGNVNGRRRRLDTHILLVKIDGKWRLELVHIH | 1.55 |
| DEDQKEAEDMAELITKLINTGDEEHWLDRADPHMKVDIDGVESVGREEIERLLHELIRKWGVSKIESRNKHVTIINGRVHFRINIHVNGQEYLLILINDKVDGRWRVQETRVHIT | 1.63 |
| DEDEKIIEDIIRKIWLAFMTGDEELYERLADPEDRLEVGEKTAVGREDVRRALHEWIRKLGIKHSHTRHMDFQGDKLIIHGEMLFNGRTFDLQLEFNVVNGRLKSMHVRIR | 1.58 |
| HEKEKLEKDIWRLLVEWLETGNEHEFEKFMDPDARLFEDVDGKELRIHGREIAMEILHHLWRDFGVDHLVLKKASIIDGVVHLDVILDVNGRRIDTRIIFVIINGRIHSTHIHIR | 1.52 |
| SEQWEEAKRLTDLYLTTSHTGDEQLSREFMDPHARTIVDGVEVHGMEEWANRFMRFVKQLRVDFRIHDMDVQGEKVDVDIRIRFVFNGVEHRIESILIVHKINGRWLMKEQRII | 1.34 |
| DEWDEHLEHVAKLIIELLLTGDEETLSRLADPHTRLEWNGRETHGRENMQETLIKILKEIWIHDIRIRHVRTQGDKAHVEGEQDGIINGVRRILDVRILIVVFNGRLRSLRFQID | 0.693 |
| DEMEDSSRWALEVEMKSFKTGDERSLYEMVDPHAKFEFENHHDHGRSAVELWREQADHMHIDFRLKDMRLVGDFIIIHGVELVHNHVNGRDIDLNLDVRIISRKINGRWILHHVLFR | 1.38 |
| HEYEEWSEIAMRLWILAERTGDERHIAHLLDPHVRYVFNGVEVIGMELITELVKRRWEQWRVHVEIEDRKFQGNFSKIEGHLRLHVGDKTEERRVEYRMDIVDGRIREISVIIE | 1.37 |
| SERDRHNEEMARHFIRLFLTGDWDDFQHLFDPNVRTHIDGRDYHGWRSTLEAVRTLEREIRIEEIRVEHVDTQGDFIHQDTKVDFNVNGQRVIRESKVHIYEVNGRIKEIEMHYH | 0.486 |
| DHMEEDVRVAVKIWEETYRTGDEQEINDLVDPNVRVNINGQDYHGRHWLRQIIIEDRRRADHIEIRIDHIEVIGDKVILRGLVIMIQGDKRFDIRMRIFDRKVNGRWHLHNLEQE | 2.08 |
| SEEKDQLKHVLEDLLRSIITGDEERIVELLDPEVRVDVGEKHSHGRENAAHLVQKLSEELRWRDIHVRDVRLIGDKIDIETRLEGDINGRNLIFQTHRHVIKVNGRWYFRRIIIH | 1.38 |
| DEIDERLHFLMKRVLHLWETGDWDMWMNYADPHVRHEIIIGDKRYSLHGREEYAEELLRHHRHIRLHTIHITHIDVVNGRVELNGRVNGDINGQHVDVELYVELKVVDGRIESERMEFR | 0.412 |
| DETFKEQEKLIERLERVERTGDWKEWERLADPNVRMDIDGVEIIGMEMVTEFILREMRHLGVTRIRIEIKEIRVIGDKIRIDGQIQQGNKETRFILIVSKIDGRWRLEESYVH | 1.06 |
| DEEEEIVMKNARDLIHLTQTGDFEKQRHLLDPHVLVVLVQGDKRIEQHGWHFWKYLMKEIRIKHIRIDHVEAQGNKAQVRGTVDGNINGRDTHWEFELTFVFIDGRIRTIDIRID | 1.4 |
| DEEEKWIRHILELVLRAEKTGDEDRLSELMDPDVKLDIDGRDLHGREKVKEWIEELKHKFKNLRIIDRDIRIYGEKHNVHGELHFNGQTHSAIIILRIVDGRIKEIFVIHV | 1.32 |
| DEEKEFAEEMTRIWIEFWKTGDEDDLSHMLDPNVRLIIIIGDKHIHMHGRERAIKEIRRLLHEWRIDDEHNEHIRYFNGKVDVRSRIHVTINGREHDHELVVRIFVVDGRVKSVSIEYR | 2.52 |
| SEREKHWRDWVENVVEYHTHLLETGDEEEWKRFFRRLADPHVRMIVGDKVTHGREDAMRLFDELIKLLGVNHVHFRRVEIIGNKVNIDVELRQGNKFINLELILIVIDGKLENVERRVH | 1.14 |
| DEDEKESKEAIEISFRLWRTGNEEEIHNYADPRARLEVFINGRLIQRHGREDFSRFMNEQLKRLGIDHIHIERLEIQGEKVIVDIHITVNGQHFRLHQDARKVDGRWIIHDVKINLL | 2.65 |
| NEERSHSEEVARLISHAWETGDEETLREQVDPHVKLVIGDKTFHGREEALTIIVQLRLRTVEIHDMKVVNGRLNLFTLWHIEIDGRRVLHHVVIHIEKIDGRWVMTEVRVH | 2.1 |

— the NTF2 design screens of Basanta et al. (2020)
